First the molecules themselves.
T1: human calcitonin receptor (a) (human, UniProt P30988 25-474)
T1 sequence (looked up): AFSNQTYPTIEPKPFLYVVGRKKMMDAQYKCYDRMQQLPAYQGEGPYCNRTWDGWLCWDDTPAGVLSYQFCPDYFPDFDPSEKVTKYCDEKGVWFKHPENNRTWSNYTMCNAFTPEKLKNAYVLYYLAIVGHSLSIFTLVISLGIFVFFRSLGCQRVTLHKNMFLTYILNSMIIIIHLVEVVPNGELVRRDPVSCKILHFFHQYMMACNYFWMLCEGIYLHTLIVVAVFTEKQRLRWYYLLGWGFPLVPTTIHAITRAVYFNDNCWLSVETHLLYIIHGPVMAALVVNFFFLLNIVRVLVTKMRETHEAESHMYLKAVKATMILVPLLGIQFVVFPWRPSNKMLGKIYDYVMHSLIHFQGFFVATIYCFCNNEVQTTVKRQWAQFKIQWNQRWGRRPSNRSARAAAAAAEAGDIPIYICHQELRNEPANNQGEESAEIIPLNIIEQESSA

T2: human amylin-3(a) receptor (human, UniProt P30988 25-474; O60896 24-148)
T2 sequence (looked up) 1: T1 sequence (looked up)
T2 sequence (looked up) 2: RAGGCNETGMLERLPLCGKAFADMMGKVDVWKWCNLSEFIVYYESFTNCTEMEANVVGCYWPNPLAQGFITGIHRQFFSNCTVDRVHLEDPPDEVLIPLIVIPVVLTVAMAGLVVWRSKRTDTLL

B1: N^1-[(4S)-4-carboxy-4-(17-carboxyheptadecanoylamino)butanoyl]-[Ala1,Ser2,Leu4,Ala7,Gln8,Glu14,His17,Asp21,Pro22,Pro27,Asp31, Pro34,Asp35,Pro37]-human amylin (peptide)
peptide: {C18 diacid-γGlu}-ASNLATAQTQRLAEFLHHSSDPFGAIPSSTDVGPDTP-NH2
SMILES: CC[C@H](C)[C@H](NC(=O)[C@H](C)NC(=O)CNC(=O)[C@H](Cc1ccccc1)NC(=O)[C@@H]1CCCN1C(=O)[C@H](CC(=O)O)NC(=O)[C@H](CO)NC(=O)[C@H](CO)NC(=O)[C@H](Cc1c[nH]cn1)NC(=O)[C@H](Cc1c[nH]cn1)NC(=O)[C@H](CC(C)C)NC(=O)[C@H](Cc1ccccc1)NC(=O)[C@H](CCC(=O)O)NC(=O)[C@H](C)NC(=O)[C@H](CC(C)C)NC(=O)[C@H](CCCNC(=N)N)NC(=O)[C@H](CCC(N)=O)NC(=O)[C@@H](NC(=O)[C@H](CCC(N)=O)NC(=O)[C@H](C)NC(=O)[C@@H](NC(=O)[C@H](C)NC(=O)[C@H](CC(C)C)NC(=O)[C@H](CC(N)=O)NC(=O)[C@H](CO)NC(=O)[C@H](C)NC(=O)CC[C@H](NC(=O)CCCCCCCCCCCCCCCCC(=O)O)C(=O)O)[C@@H](C)O)[C@@H](C)O)C(=O)N1CCC[C@H]1C(=O)N[C@@H](CO)C(=O)N[C@@H](CO)C(=O)N[C@H](C(=O)N[C@@H](CC(=O)O)C(=O)N[C@H](C(=O)NCC(=O)N1CCC[C@H]1C(=O)N[C@@H](CC(=O)O)C(=O)N[C@H](C(=O)N1CCC[C@H]1C(N)=O)[C@@H](C)O)C(C)C)[C@@H](C)O
B2: N^1-[(4S)-4-carboxy-4-(17-carboxyheptadecanoylamino)butanoyl]-[Ala1,Gly2,Glu3,Leu4,Ser5,Ala7,Gln8,Glu14,His17,Asp21, Pro22,Pro27,Asp31, Pro34,Asp35, … (peptide)
peptide: {C18 diacid-γGlu}-AGELSTAQTQRLAEFLHHSSDPFGAIPSSTDVGPDTP-NH2
SMILES: CC[C@H](C)[C@H](NC(=O)[C@H](C)NC(=O)CNC(=O)[C@H](Cc1ccccc1)NC(=O)[C@@H]1CCCN1C(=O)[C@H](CC(=O)O)NC(=O)[C@H](CO)NC(=O)[C@H](CO)NC(=O)[C@H](Cc1c[nH]cn1)NC(=O)[C@H](Cc1c[nH]cn1)NC(=O)[C@H](CC(C)C)NC(=O)[C@H](Cc1ccccc1)NC(=O)[C@H](CCC(=O)O)NC(=O)[C@H](C)NC(=O)[C@H](CC(C)C)NC(=O)[C@H](CCCNC(=N)N)NC(=O)[C@H](CCC(N)=O)NC(=O)[C@@H](NC(=O)[C@H](CCC(N)=O)NC(=O)[C@H](C)NC(=O)[C@@H](NC(=O)[C@H](CO)NC(=O)[C@H](CC(C)C)NC(=O)[C@H](CCC(=O)O)NC(=O)CNC(=O)[C@H](C)NC(=O)CC[C@H](NC(=O)CCCCCCCCCCCCCCCCC(=O)O)C(=O)O)[C@@H](C)O)[C@@H](C)O)C(=O)N1CCC[C@H]1C(=O)N[C@@H](CO)C(=O)N[C@@H](CO)C(=O)N[C@H](C(=O)N[C@@H](CC(=O)O)C(=O)N[C@H](C(=O)NCC(=O)N1CCC[C@H]1C(=O)N[C@@H](CC(=O)O)C(=O)N[C@H](C(=O)N1CCC[C@H]1C(N)=O)[C@@H](C)O)C(C)C)[C@@H](C)O
B3: N^1-[(4S)-4-carboxy-4-(17-carboxyheptadecanoylamino)butanoyl]-[Ala1,Gly2,Ser3,Leu4,Ser5,Ala7,Gln8,Ala10,Glu14,His17,Asp21, Pro25,Pro28,Pro29,Asp31,Pro37]-human … (peptide)
peptide: {C18 diacid-γGlu}-AGSLSTAQTARLAEFLHHSSDNFGPILPPTDVGSNTP-NH2
SMILES: CC[C@H](C)[C@H](NC(=O)[C@@H]1CCCN1C(=O)CNC(=O)[C@H](Cc1ccccc1)NC(=O)[C@H](CC(N)=O)NC(=O)[C@H](CC(=O)O)NC(=O)[C@H](CO)NC(=O)[C@H](CO)NC(=O)[C@H](Cc1c[nH]cn1)NC(=O)[C@H](Cc1c[nH]cn1)NC(=O)[C@H](CC(C)C)NC(=O)[C@H](Cc1ccccc1)NC(=O)[C@H](CCC(=O)O)NC(=O)[C@H](C)NC(=O)[C@H](CC(C)C)NC(=O)[C@H](CCCNC(=N)N)NC(=O)[C@H](C)NC(=O)[C@@H](NC(=O)[C@H](CCC(N)=O)NC(=O)[C@H](C)NC(=O)[C@@H](NC(=O)[C@H](CO)NC(=O)[C@H](CC(C)C)NC(=O)[C@H](CO)NC(=O)CNC(=O)[C@H](C)NC(=O)CC[C@H](NC(=O)CCCCCCCCCCCCCCCCC(=O)O)C(=O)O)[C@@H](C)O)[C@@H](C)O)C(=O)N[C@@H](CC(C)C)C(=O)N1CCC[C@H]1C(=O)N1CCC[C@H]1C(=O)N[C@H](C(=O)N[C@@H](CC(=O)O)C(=O)N[C@H](C(=O)NCC(=O)N[C@@H](CO)C(=O)N[C@@H](CC(N)=O)C(=O)N[C@H](C(=O)N1CCC[C@H]1C(N)=O)[C@@H](C)O)C(C)C)[C@@H](C)O
B4: N^1-[(4S)-4-carboxy-4-(17-carboxyheptadecanoylamino)butanoyl]-[Ala1,Gly2,Ser3,Leu4,Ser5,Ala7,Gln8,Ala10,Glu14,His17,Pro25,Pro28,Pro29,Asp31,Glu35,Pro37],des-(19 … (peptide)
peptide: {C18 diacid-γGlu}-AGSLSTAQTARLAEFLHHFGPILPPTDVGSETP-NH2
SMILES: CC[C@H](C)[C@H](NC(=O)[C@@H]1CCCN1C(=O)CNC(=O)[C@H](Cc1ccccc1)NC(=O)[C@H](Cc1c[nH]cn1)NC(=O)[C@H](Cc1c[nH]cn1)NC(=O)[C@H](CC(C)C)NC(=O)[C@H](Cc1ccccc1)NC(=O)[C@H](CCC(=O)O)NC(=O)[C@H](C)NC(=O)[C@H](CC(C)C)NC(=O)[C@H](CCCNC(=N)N)NC(=O)[C@H](C)NC(=O)[C@@H](NC(=O)[C@H](CCC(N)=O)NC(=O)[C@H](C)NC(=O)[C@@H](NC(=O)[C@H](CO)NC(=O)[C@H](CC(C)C)NC(=O)[C@H](CO)NC(=O)CNC(=O)[C@H](C)NC(=O)CC[C@H](NC(=O)CCCCCCCCCCCCCCCCC(=O)O)C(=O)O)[C@@H](C)O)[C@@H](C)O)C(=O)N[C@@H](CC(C)C)C(=O)N1CCC[C@H]1C(=O)N1CCC[C@H]1C(=O)N[C@H](C(=O)N[C@@H](CC(=O)O)C(=O)N[C@H](C(=O)NCC(=O)N[C@@H](CO)C(=O)N[C@@H](CCC(=O)O)C(=O)N[C@H](C(=O)N1CCC[C@H]1C(N)=O)[C@@H](C)O)C(C)C)[C@@H](C)O
B5: N^1-[(4S)-4-carboxy-4-(17-carboxyheptadecanoylamino)butanoyl]-[Ala1,Ser2,His3,Leu4,Ser5,Ala7,Gln8,Ala10,Glu14,His17,Asp21,Pro25,Pro28,Pro29,Asp31,Pro37]-human … (peptide)
peptide: {C18 diacid-γGlu}-ASHLSTAQTARLAEFLHHSSDNFGPILPPTDVGSNTP-NH2
SMILES: CC[C@H](C)[C@H](NC(=O)[C@@H]1CCCN1C(=O)CNC(=O)[C@H](Cc1ccccc1)NC(=O)[C@H](CC(N)=O)NC(=O)[C@H](CC(=O)O)NC(=O)[C@H](CO)NC(=O)[C@H](CO)NC(=O)[C@H](Cc1c[nH]cn1)NC(=O)[C@H](Cc1c[nH]cn1)NC(=O)[C@H](CC(C)C)NC(=O)[C@H](Cc1ccccc1)NC(=O)[C@H](CCC(=O)O)NC(=O)[C@H](C)NC(=O)[C@H](CC(C)C)NC(=O)[C@H](CCCNC(=N)N)NC(=O)[C@H](C)NC(=O)[C@@H](NC(=O)[C@H](CCC(N)=O)NC(=O)[C@H](C)NC(=O)[C@@H](NC(=O)[C@H](CO)NC(=O)[C@H](CC(C)C)NC(=O)[C@H](Cc1c[nH]cn1)NC(=O)[C@H](CO)NC(=O)[C@H](C)NC(=O)CC[C@H](NC(=O)CCCCCCCCCCCCCCCCC(=O)O)C(=O)O)[C@@H](C)O)[C@@H](C)O)C(=O)N[C@@H](CC(C)C)C(=O)N1CCC[C@H]1C(=O)N1CCC[C@H]1C(=O)N[C@H](C(=O)N[C@@H](CC(=O)O)C(=O)N[C@H](C(=O)NCC(=O)N[C@@H](CO)C(=O)N[C@@H](CC(N)=O)C(=O)N[C@H](C(=O)N1CCC[C@H]1C(N)=O)[C@@H](C)O)C(C)C)[C@@H](C)O

*1 amine or outer side, *2 acyl side, *3 side chain or, on linkers, in order; H or OH if unused. The star is where a group is joined. C18 diacid = O=C(O)CCCCCCCCCCCCCCCCC(=O)*; γGlu = O=C(O)[C@H](CCC(=O)[*:2])N[*:1]

In one assay the target is T1, human calcitonin receptor (a). In words: cell-based or functional assay.
Regarding B1, the “hCalcR potency, EC50 (pM); CRE-luciferase reporter in BHK cells” value is 1.99 pM.
Turning to B2, the “hCalcR potency, EC50 (pM); CRE-luciferase reporter in BHK cells” value is 1.58 pM.
Still for that read-out and setting: the same measure for B3: 1.58 pM; for B4: 1.01 pM; for B5: 1.63 pM.

The next assay concerns the target T2, human amylin-3(a) receptor. In words: cell-based or functional assay.
B1: the “hAmyR3 potency, EC50 (pM); CRE-luciferase reporter in BHK cells” value was determined as 1.88 pM.
Still for that read-out and setting: the same measure for B2: 2.43 pM; for B3: 1.36 pM; for B4: 0.81 pM.
B5: the “hAmyR3 potency, EC50 (pM); CRE-luciferase reporter in BHK cells” value came out at 1.28 pM.

(Values after US20260209293A1 (Novo Nordisk, published 2026).)
